Laboratory results from patent publication US6307026, “Humanized antibodies directed against A33 antigen” (Celltech Limited, dated 2001).

Legend:
A33 antigen [1] = target: T1, A33 antigen (human, UniProt Q99795); experiment: direct binding to ASPC-1 cells, FITC labelled anti-human IgG, FACScan
T1 sequence: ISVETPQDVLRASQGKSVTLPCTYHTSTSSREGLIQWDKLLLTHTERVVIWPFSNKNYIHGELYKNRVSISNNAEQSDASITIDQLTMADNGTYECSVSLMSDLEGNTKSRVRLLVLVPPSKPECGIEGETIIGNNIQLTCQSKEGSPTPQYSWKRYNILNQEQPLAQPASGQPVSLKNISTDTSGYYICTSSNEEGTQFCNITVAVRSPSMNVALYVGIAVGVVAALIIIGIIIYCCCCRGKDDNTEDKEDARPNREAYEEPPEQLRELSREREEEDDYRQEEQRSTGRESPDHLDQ
Method: In the direct binding assay ASPC-1 or Colo205 cells were incubated at […] for 1 h. in the presence of various amounts of murine, chimeric or humanised A33, or non-specific antibody controls.
To confirm that the sequences obtained could combine to bind to the A33 antigen the chimeric expression plasmids pRO107 and pRO108 were transiently co-expressed in CHO-L761h cells (Cockett et al., 1990) at 200 mL scale. […] The binding of the antibody to the cells was measured using FITC labelled anti-human IgG and the bound fluorescence was detected in a FACScan analyser.

A33 antigen [2] = target: T1, A33 antigen; experiment: competition assays of Example 1 (FITC-labelled murine A33 on cells, FACScan); reference
A33 antigen [3] = target: T1, A33 antigen; experiment: fluorescein-labelled antibody titrated on SW1222 cells, FACScan, Scatchard plot
Method: The potency of hA33 (γ1) was compared to that of murine A33 by binding to cells of the human colerectal cancer cell line SW 1222. Fluorescently labelled conjugates of purified humanised and murine A33 were prepared to give approximately 1.5 molecules of fluorescein per antibody molecule. SW1222 cells (2.8×10⁵ per tube) were incubated with the fluorescent antibodies titrated in the range 3.57 µg/ml to 12 ng/ml in PBS with 5% foetal calf serum and 0.2% sodium azide on ice for 1.5 hours. After washing, antibody bound to the surface of the cells was detected by a FACscan (Becton Dickinson) as a fluorescent signal which was converted to numbers of antibody molecules bound per cell by calibration with fluorescent microbead standards.

B1: chimeric A33(γ1) (antibody, V domains shown)
VH: EVKLVESGGGLVKPGGSLKLSCAASGFAFSTYDMSWVRQTPEKRLEWVATISSGGSYTYYLDSVKGRFTISRDSARNTLYLQMSSLRSEDTALYYCAPTTVVPFAYWGQGTLVTVSA
VL: DIVMTQSQKFMSTSVGDRVSITCKASQNVRTVVAWYQQKPGQSPKTLIYLASNRHTGVPDRFTGSGSGTDFTLTISNVQSEDLADYFCLQHWSYPLTFGSGTKLEVKR
- binding result (A33 antigen [1]): binds

B2: mA33 Fab (Fab, V domains shown)
VH: B1 VH
VL: B1 VL
- binding result (A33 antigen [2]): binds

B3: murine monoclonal antibody A33 (antibody, V domains shown)
VH: B1 VH
VL: B1 VL
modifications: FITC or fluorescein label on the antibody where it is used as labelled competitor or in the Scatchard assay (about 1.5 molecules of fluorescein per antibody molecule)
- binding result (A33 antigen [3]): binds
